From patent US20240150466A1 (DYNAMICURE BIOTECHNOLOGY, published 2024)
Read-outs that look alike come from different tables or passages of the source.

T1: human IGFBP7 recombinant protein (UniProt Q16270 27-282, biotinylated with EZ-LINK NHS-PEG4 biotin in the BLI assays (sites not given))
T1 chain: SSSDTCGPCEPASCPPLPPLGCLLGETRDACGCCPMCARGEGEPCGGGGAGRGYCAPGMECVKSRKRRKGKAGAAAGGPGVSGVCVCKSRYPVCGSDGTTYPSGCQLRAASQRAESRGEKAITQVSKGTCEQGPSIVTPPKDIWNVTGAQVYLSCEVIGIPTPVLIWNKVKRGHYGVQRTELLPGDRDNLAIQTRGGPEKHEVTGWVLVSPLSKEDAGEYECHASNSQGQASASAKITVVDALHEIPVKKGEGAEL

T2: mouse IGFBP7 recombinant protein (mouse, UniProt Q61581 26-281, biotinylated with EZ-LINK NHS-PEG4 biotin in the BLI assays (sites not given))
T2 chain: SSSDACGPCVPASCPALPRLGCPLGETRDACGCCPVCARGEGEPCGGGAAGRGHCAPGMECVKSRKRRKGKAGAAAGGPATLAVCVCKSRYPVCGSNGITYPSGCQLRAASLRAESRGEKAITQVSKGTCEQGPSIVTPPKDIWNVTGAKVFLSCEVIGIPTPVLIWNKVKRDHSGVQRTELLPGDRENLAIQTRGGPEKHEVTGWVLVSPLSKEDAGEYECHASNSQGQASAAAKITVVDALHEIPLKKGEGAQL

T3: mouse IGFBP7 displayed on cells (HEK293T or CHO-K1) (mouse, UniProt Q61581 26-281)
T3 construct: whole, on cells;domain: CD80 transmembrane domain; also called mIGFBP7; mIGFBP7-HEK cells; not shown: linker; CD80 transmembrane domain
T3 sequence (looked up): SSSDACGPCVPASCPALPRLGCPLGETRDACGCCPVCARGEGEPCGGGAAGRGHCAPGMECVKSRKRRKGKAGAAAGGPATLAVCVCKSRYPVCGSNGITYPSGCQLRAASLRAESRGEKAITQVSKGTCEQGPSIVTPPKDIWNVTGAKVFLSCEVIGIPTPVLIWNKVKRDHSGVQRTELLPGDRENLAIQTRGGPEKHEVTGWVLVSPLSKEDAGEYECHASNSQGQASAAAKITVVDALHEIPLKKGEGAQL

T4: cynomolgus IGFBP7 recombinant protein (cynomolgus)
T4 chain: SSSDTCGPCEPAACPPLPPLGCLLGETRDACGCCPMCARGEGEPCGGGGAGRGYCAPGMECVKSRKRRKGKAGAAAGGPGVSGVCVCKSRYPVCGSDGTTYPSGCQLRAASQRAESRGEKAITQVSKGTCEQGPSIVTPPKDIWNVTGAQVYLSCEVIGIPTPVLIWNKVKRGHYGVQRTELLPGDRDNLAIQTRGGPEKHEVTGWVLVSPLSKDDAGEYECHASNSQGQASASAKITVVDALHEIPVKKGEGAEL

T5: human IGFBP7 displayed on HEK293T cells (human, UniProt Q16270 27-282)
T5 construct: domain: CD80 transmembrane domain; signal peptide stated as residues 1-26; also called hIGFBP7; hIGFBP7-HEK cells; not shown: linker; CD80 transmembrane domain
T5 sequence: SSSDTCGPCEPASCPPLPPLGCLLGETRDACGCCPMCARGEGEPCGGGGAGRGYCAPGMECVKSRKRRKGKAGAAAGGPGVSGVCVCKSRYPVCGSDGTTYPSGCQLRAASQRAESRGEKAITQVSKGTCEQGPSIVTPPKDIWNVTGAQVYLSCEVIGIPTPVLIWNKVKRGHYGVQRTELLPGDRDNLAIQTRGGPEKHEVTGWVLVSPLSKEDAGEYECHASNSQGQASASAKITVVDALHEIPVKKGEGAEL

T6: mouse IGFBP7 recombinant protein (mouse, UniProt Q61581 26-281, limits assumed, biotinylated with EZ-LINK NHS-PEG4 biotin in the BLI assays (sites not given))
T6 construct: Soluble protein in ELISA and BLI; also called mIGFBP7
T6 sequence (looked up): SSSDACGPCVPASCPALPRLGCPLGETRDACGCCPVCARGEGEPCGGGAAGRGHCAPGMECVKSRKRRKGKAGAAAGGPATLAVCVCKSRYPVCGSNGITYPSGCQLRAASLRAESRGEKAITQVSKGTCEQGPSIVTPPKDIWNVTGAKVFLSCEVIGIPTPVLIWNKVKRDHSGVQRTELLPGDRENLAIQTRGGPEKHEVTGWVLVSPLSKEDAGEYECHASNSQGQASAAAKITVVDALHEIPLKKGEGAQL

T7: human IGFBP7 recombinant protein (human, UniProt Q16270 27-282, biotinylated with EZ-LINK NHS-PEG4 biotin in the BLI assays (sites not given))
T7 construct: Soluble protein used for ELISA coating and, biotinylated, on streptavidin biosensors (Octet); also called hIGFBP7; biotinylated IGFBP7 protein
T7 sequence: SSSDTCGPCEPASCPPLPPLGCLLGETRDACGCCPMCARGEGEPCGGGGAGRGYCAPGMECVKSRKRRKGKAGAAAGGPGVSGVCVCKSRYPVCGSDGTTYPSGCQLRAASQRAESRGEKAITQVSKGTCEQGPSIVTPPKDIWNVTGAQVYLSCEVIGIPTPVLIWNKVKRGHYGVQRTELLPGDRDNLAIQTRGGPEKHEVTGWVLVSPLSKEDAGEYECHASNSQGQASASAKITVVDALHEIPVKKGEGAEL


Legend:
[1] = target: T1, human IGFBP7 recombinant protein; assay: BLI
[2] = target: T2, mouse IGFBP7 recombinant protein; assay: BLI
[3] = target: T3, mouse IGFBP7 displayed on cells …; assay: flow cytometry on mIGFBP7-HEK cells (FIG. 13)
Protocol: (§1) After washing with FACS buffer, the cells were incubated with Alexa Fluor 488 conjugated anti-mouse IgG antibody (Jackson ImmunoResearch) for 30 minutes in 4° C. After washing with FACS buffer twice, the samples were acquired in NovoCyte Flow Cytometer and analyzed by NovoExpress software.

[4] = target: T4, cynomolgus IGFBP7 recombinant protein; assay: BLI
[5] = target: T5, human IGFBP7 displayed on HEK293T cells; assay: flow cytometry on hIGFBP7-HEK cells (FIG. 13)
Protocol: as §1

[6] = target: T6, mouse IGFBP7 recombinant protein; assay: BLI (Octet QKe), biotinylated IGFBP7 on streptavidin biosensors (FIG. 10)
Protocol: (§2) The binding affinity of anti-IGFBP7 nanobody Fc-fusion constructs (e.g., VHH-Fc-fusion constructs) were determined with bio-layer interferometry (BLI) using Octet QKe (Fortebio). Human, mouse, and cynomolgus IGFBP7 were biotinylated using EZ-LINK NHS-PEG4 biotin (Thermo Fisher Scientific). Streptavidin biosensors (ForteBio) were used to load biotinylated IGFBP7 protein (300 seconds in 5 μg/mL). Baseline was stabilized for 60 seconds in 1× kinetics buffer (ForteBio) before anti-IGFBP7 Fc-fucion proteins (serial dilution) were allowed to associate for 300 seconds with captured hIGFBP7 or mIGFBP7. Then the sensors were dissociated in 1× kinetics buffer for 600 seconds. Data analysis was performed on ForteBio Data Analysis HT 11.1 software.

[7] = target: T2, mouse IGFBP7 recombinant protein; assay: BLI
[8] = target: T1, human IGFBP7 recombinant protein; assay: BLI
[9] = target: T1, human IGFBP7 recombinant protein; assay: BLI
[10] = target: T7, human IGFBP7 recombinant protein; assay: BLI (Octet QKe), biotinylated IGFBP7 on streptavidin biosensors (FIG. 9)
Protocol: as §2

[11] = target: T2, mouse IGFBP7 recombinant protein; assay: BLI
[12] = target: T7, human IGFBP7 recombinant protein; assay: ELISA
[13] = target: T6, mouse IGFBP7 recombinant protein; assay: ELISA
[14] = target: T5, human IGFBP7 displayed on HEK293T cells; assay: flow cytometry on human IGFBP7 displaying HEK293T cells, nanobody 10 ug/ml, APC anti-HIS detection
Protocol: (§3) Human IGFBP7 and mouse IGFBP7 displaying HEK293T cells were detached by incubation with TrypLE reagents (Thermos Fisher), which preserves the integrity of IGFBP7 on the cell surface. Then the cells were incubated with anti-IGFBP7 nanobodies at 10 μg/ml for 30 minutes in 4° C. After washing by FACS buffer, the cells were incubated with APC conjugated anti-HIS antibodies (Biolegend) for 30 minutes in 4° C. After washing by FACS buffer twice, the samples were acquired in NovoCyte Flow Cytometer and analyzed by NovoExpress software.

[15] = target: T3, mouse IGFBP7 displayed on cells …; assay: flow cytometry on mouse IGFBP7 displaying HEK293T cells, nanobody 10 ug/ml, APC anti-HIS detection
Protocol: as §3

[16] = target: T3, mouse IGFBP7 displayed on cells …; assay: FACS on mIGFBP7-expressing CHO-K1 cells (FIG. 5)

Binder	Kd [1]	Kd [2]	binding result [3]	Kd [4]	binding result [5]	binding result [6]	Kd [8]	binding result [10]	Kd [11]	binding result [12]	binding result [13]	binding result [14]	binding result [15]	binding result [16]	other results
A1-mIgG2a nanobody Fc-fusion (Fc fusion, VHH fused with mIgG2a Fc fragment, expressed in Expi293 cells, Protein G purified; also called monoclonal A1-mIgG2a; monospecific A1-mIgG2a; not shown: mouse IgG2a Fc fragment (mIgG2a Fc)) VQLQESGGGLVQAGGSLRLSCAASGSLFAIDKWGWYRQVAGNERELVAWRYSPVSINYGDSVKGRFTVSGDSSRKRVYLQMNSLKPDDTAVYRCAAVISGAWYWGQGTQVTVSS	2.72 nM	25.8 nM	binds	2.41 nM	binds	binds	2.72 nM	binds	25.8 nM	–	–	–	–	–	Kd [7]: 60.1 nM; Kd [9]: 3.7 nM
bispecific anti-IGFBP7 nanobody Fc-fusion construct A1-mIgG2a-D4 (bispecific antibody, V domains shown, also called A1-mIgG2a-D4-2; not shown: mouse IgG2a Fc fragment (mIgG2a Fc)) V domain 1: VQLQESGGGLVQAGGSLRLSCAASGSLFAIDKWGWYRQVAGNERELVAWRYSPVSINYGDSVKGRFTVSGDSSRKRVYLQMNSLKPDDTAVYRCAAVISGAWYWGQGTQVTVSS V domain 2: VQLQESGGGLVQTGGSLRLSCAASGRSFTFSSYAMGWFRHAPGKEREFLTAITWSGDYTYYTDSVKGRSTISRDNAKNTVYLQLNNLKPEDTAVYYCAAKFSQVSAFFATVSEYEYWGQGTQVTVSS	0.193 nM	1.74 nM	binds	0.195 nM	binds	binds	0.193 nM	binds	1.74 nM	–	–	–	–	–	–
anti-IGFBP7 nanobody A01 (VHH, Llama nanobody expressed in E. coli as His6-tagged protein; also called A1; A1 VHH; not shown: His6 tag) VHH: VQLQESGGGLVQAGGSLRLSCAASGSLFAIDKWGWYRQVAGNERELVAWRYSPVSINYGDSVKGRFTVSGDSSRKRVYLQMNSLKPDDTAVYRCAAVISGAWYWGQGTQVTVSS	–	–	–	–	–	–	–	–	–	binds	binds	binds	binds	–	–
anti-IGFBP7 nanobody D04 (VHH, Llama nanobody expressed in E. coli as His6-tagged protein; also called D4; D4 VHH; not shown: His6 tag) VHH: VQLQESGGGLVQTGGSLRLSCAASGRSFTFSSYAMGWFRHAPGKEREFLTAITWSGDYTYYTDSVKGRSTISRDNAKNTVYLQLNNLKPEDTAVYYCAAKFSQVSAFFATVSEYEYWGQGTQVTVSS	–	–	–	–	–	–	–	–	–	binds	binds	binds	binds	–	–
anti-IGFBP7 nanobody Fc-fusion construct derived from A1 (Fc isotype not told) (Fc fusion, may be the same as A1-mIgG2a or A1-mIgG1; not shown: mouse Fc fragment, mIgG2a or mIgG1) VQLQESGGGLVQAGGSLRLSCAASGSLFAIDKWGWYRQVAGNERELVAWRYSPVSINYGDSVKGRFTVSGDSSRKRVYLQMNSLKPDDTAVYRCAAVISGAWYWGQGTQVTVSS	–	–	–	–	–	–	–	–	–	–	–	–	–	binds	–
anti-IGFBP7 nanobody Fc-fusion construct derived from D4 (Fc isotype not told) (Fc fusion, may be the same as D4-mIgG2a; not shown: mouse Fc fragment, mIgG2a or mIgG1) VQLQESGGGLVQTGGSLRLSCAASGRSFTFSSYAMGWFRHAPGKEREFLTAITWSGDYTYYTDSVKGRSTISRDNAKNTVYLQLNNLKPEDTAVYYCAAKFSQVSAFFATVSEYEYWGQGTQVTVSS	–	–	–	–	–	–	–	–	–	–	–	–	–	binds	–
